B1: mouse anti-CD70-scFv monoclonal antibody 20H05-02D09 (antibody, mouse IgG1, kappa, V domains shown)
VH: QIQLVQSGPELKKPGETVKISCKASGYTFTNYGMHWVKQAPGKVLKWMGWINTYSGVPTYPDDFKGRFAFSLETSASTASLQINNLKNEDTATYFCATERLRGWFPFWGQGTLVTVSA
VL: QIVLTQSPAIMSASPGEKVTISCSASSSVSYMYWYQQKPGSSPKPWIYRTSNLASGVPARFSGSGSGTSYSLTISSMEAEDAATYYCQQYHSYPPTFGGGTKLEIKR
notes: also called 20H05-2D09; native 20H05-2D09
B2: APC conjugated 20H05 (antibody, mouse IgG1, kappa, V domains shown)
VH: B1 VH
VL: B1 VL
modifications: conjugated with APC (allophycocyanin); site and chain not stated
notes: also called direct APC conjugated antibody
B3: biotin conjugated 20H05 (antibody, mouse IgG1, kappa, V domains shown)
VH: B1 VH
VL: B1 VL
modifications: conjugated with biotin; site and chain not stated

Columns and labels:
[1] = molecular target: T1, anti-CD70 CAR of SEQ ID NO: 6; assay: flow cytometry, antibody dilution 1:1600, cell population with about 65.4% anti-CD70 CAR+ cells
T1 construct: also called anti-CD70 CAR T cells; anti-CD70 chimeric antigen receptor

[2] = molecular target: T1, anti-CD70 CAR of SEQ ID NO: 6; assay: flow cytometry, antibody dilution 1:800, cell population with about 65.4% anti-CD70 CAR+ cells
[3] = molecular target: T1, anti-CD70 CAR of SEQ ID NO: 6; assay: flow cytometry, antibody dilution 1:3200, cell population with about 65.4% anti-CD70 CAR+ cells
[4] = molecular target: T2, anti-BCMA CAR of SEQ ID NO: 7; assay: flow cytometry on anti-BCMA CAR T cells, antibody at fold dilutions 100 to 12800, % CAR positive cells
T2 construct: also called anti-BCMA CAR T cells
Protocol: (§1) The purified 20H05-02D09 antibody was analyzed by flow cytometry for binding to CAR T cells expressing the anti-CD70 CAR of SEQ ID NO: 6 (anti-CD70 CAR T cells). CAR T cells expressing an anti-BCMA CAR of SEQ ID NO: 7 (anti-BCMA CAR T cells) or an anti-CD19 CAR SEQ ID NO: 8 (anti-CD19 CAR T cells) were used as negative controls. Anti-CD70-scFv antibody (20H05-02D09) was analyzed at various dilutions (FIG. 2).

[5] = molecular target: T3, anti-CD19 CAR SEQ ID NO: 8; assay: flow cytometry on anti-CD19 CAR T cells, antibody at fold dilutions 100 to 12800, % CAR positive cells
T3 construct: also called anti-CD19 CAR T cells
Protocol: as §1

[6] = molecular target: T1, anti-CD70 CAR of SEQ ID NO: 6; assay: flow cytometry, antibody dilution 1:50, cell population with about 65.4% anti-CD70 CAR+ cells
[7] = molecular target: T1, anti-CD70 CAR of SEQ ID NO: 6; assay: flow cytometry, antibody dilution 1:6400, cell population with about 65.4% anti-CD70 CAR+ cells
[8] = molecular target: T1, anti-CD70 CAR of SEQ ID NO: 6; assay: flow cytometry, antibody dilution 1:400, cell population with about 65.4% anti-CD70 CAR+ cells
[9] = molecular target: T1, anti-CD70 CAR of SEQ ID NO: 6; assay: flow cytometry, antibody dilution 1:200, cell population with about 65.4% anti-CD70 CAR+ cells
[10] = molecular target: T1, anti-CD70 CAR of SEQ ID NO: 6; assay: flow cytometry, antibody dilution 1:100, cell population with about 65.4% anti-CD70 CAR+ cells

T1 sequence (chain, as listed by the source limits assumed): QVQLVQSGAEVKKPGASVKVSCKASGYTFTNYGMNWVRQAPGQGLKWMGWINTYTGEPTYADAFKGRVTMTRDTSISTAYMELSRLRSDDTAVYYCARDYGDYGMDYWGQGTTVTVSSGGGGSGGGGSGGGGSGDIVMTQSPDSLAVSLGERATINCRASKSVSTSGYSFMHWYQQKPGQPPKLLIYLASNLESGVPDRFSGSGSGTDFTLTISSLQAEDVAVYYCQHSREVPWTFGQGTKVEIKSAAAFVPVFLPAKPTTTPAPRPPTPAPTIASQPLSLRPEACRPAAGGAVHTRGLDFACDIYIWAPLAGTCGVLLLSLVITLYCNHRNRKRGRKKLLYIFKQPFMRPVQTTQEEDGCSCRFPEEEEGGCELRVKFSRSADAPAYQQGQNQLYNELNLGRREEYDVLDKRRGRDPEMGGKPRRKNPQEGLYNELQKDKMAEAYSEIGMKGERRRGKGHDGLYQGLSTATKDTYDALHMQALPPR
T2 sequence (chain, as listed by the source limits assumed): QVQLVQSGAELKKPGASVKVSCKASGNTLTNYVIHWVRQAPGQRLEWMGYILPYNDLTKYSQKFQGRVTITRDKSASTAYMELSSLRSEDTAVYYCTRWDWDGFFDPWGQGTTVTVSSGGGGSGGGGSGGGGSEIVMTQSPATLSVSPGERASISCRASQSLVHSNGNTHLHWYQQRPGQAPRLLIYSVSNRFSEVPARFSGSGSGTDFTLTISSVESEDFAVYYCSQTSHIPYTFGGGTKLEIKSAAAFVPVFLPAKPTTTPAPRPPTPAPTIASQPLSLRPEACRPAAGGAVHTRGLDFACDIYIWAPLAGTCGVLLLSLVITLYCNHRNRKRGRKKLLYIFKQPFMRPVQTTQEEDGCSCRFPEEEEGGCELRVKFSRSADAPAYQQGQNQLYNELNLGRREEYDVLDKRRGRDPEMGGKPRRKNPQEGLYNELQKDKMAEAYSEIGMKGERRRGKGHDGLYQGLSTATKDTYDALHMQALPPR

percentage of anti-CD70 CAR+ cells [1] [%] | percentage of anti-CD70 CAR+ cells [2] [%] | percentage of anti-CD70 CAR+ cells [3] [%] | binding result [4] | binding result [5] | percentage of anti-CD70 CAR+ cells [6] [%] | percentage of anti-CD70 CAR+ cells [7] [%] | percentage of anti-CD70 CAR+ cells [8] [%] | percentage of anti-CD70 CAR+ cells [9] [%] | percentage of anti-CD70 CAR+ cells [10] [%] | Binder
65.4 | 66.5 | 67.8 | no binding | no binding | 67.7 | 66.5 | 67.2 | 68.3 | 67.5 | B1
61.4 | 61.5 | 62.7 | – | – | 60.8 | 62.4 | 61.8 | 61.7 | 61.3 | B2
66.4 | 67 | 66.2 | – | – | 66.3 | 65.3 | 66.4 | 67.6 | 65.9 | B3
